Source: patent US20200325237A1 (AVIDITY BIOSCIENCES, published 2020)

How the values were obtained:
[1] = biological target: T1, hTfR (human transferrin receptor, source and construct not stated) (human, UniProt P02786 89-760, limits assumed); experiment: ELISA, biotinylated antibody on hTfR captured by plate-coated human holo-transferrin (Tf+TfR); fit: specific binding with Hill slope
How it was run: (§1)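 Human holo-transferrin coated at 500 ng/mL (4 °C overnight) captured hTfR (200 ng/mL, 30 min); comparison plates carried directly coated hTfR. Biotinylated antibodies, 3-fold series from 20 nM (pre-addition), bound 1 h; streptavidin-HRP/TMB, A450 minus A570. Kd from specific binding with Hill slope; shift judged against reference antibody AF2474 with transferrin-overlapping epitope.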

[2] = biological target: T1, hTfR (human transferrin receptor, …); experiment: SPR (BioRad ProteOn XPR36), mAb captured on Protein A, hTfR as analyte, 25 C
How it was run: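 Antibodies at 2 ug/ml were captured on a Protein A GLM chip for 40 s. hTfR was injected as analyte from 43 nM in a 3-fold series, 2 min association and 1 h dissociation. Run at 25 degrees C in HEPES/150 mM NaCl pH 7.4 with tween-20 and 0.2 mg/ml BSA.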

[3] = biological target: T1, hTfR (human transferrin receptor, …); experiment: ELISA, biotinylated antibody on hTfR captured by plate-coated HFE (HFE+TfR)
[4] = biological target: T1, hTfR (human transferrin receptor, …); experiment: ELISA; ratio of the Kd on HFE-captured hTfR to the Kd on directly coated hTfR
[5] = biological target: T1, hTfR (human transferrin receptor, …); experiment: ELISA; ratio of the Kd on transferrin-captured hTfR to the Kd on directly coated hTfR
How it was run: as §1

[6] = biological target: T2, recombinant cyno transferrin receptor protein (Sino Biological 90253-C07H) (cyno, UniProt H9EXL1 89-760 (rhesus entry)); experiment: ELISA on plate-coated recombinant cyno TfR1 (CD71); fit: specific binding with Hill slope
T2 construct: Bought protein coated on ELISA plates; also called recombinant cyno TfR1; cynoTfR1
T2 sequence (chain, as listed by the source C07H C07H): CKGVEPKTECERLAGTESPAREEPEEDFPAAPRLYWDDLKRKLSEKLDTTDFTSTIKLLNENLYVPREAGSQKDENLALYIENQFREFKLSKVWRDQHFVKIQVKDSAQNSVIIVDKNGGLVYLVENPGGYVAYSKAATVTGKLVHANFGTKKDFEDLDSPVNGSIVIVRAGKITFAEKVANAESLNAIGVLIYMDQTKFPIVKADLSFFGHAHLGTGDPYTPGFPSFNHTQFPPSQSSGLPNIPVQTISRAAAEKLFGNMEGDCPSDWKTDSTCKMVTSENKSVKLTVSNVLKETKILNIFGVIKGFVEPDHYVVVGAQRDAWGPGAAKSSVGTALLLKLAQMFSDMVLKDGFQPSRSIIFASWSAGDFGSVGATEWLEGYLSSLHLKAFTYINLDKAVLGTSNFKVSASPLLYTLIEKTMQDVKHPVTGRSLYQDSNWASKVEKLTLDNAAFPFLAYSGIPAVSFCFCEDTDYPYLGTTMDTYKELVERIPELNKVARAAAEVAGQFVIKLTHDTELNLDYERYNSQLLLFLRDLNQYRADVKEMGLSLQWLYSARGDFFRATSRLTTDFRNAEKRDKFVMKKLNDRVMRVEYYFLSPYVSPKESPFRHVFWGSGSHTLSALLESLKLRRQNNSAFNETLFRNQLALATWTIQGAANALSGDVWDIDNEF
How it was run: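 Plates coated overnight at 4° C with recombinant human or cyno TfR1 (1 ng/μL), blocked, then incubated with samples up to 10 nM for 1 h at room temperature. Bound IgG detected with HRP anti-human Fcγ and TMB (A450 minus A570); Bmax, h and Kd from specific-binding-with-Hill-slope fit.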

[7] = biological target: T3, TfR2 (transferrin receptor 2) (UniProt Q9UP52 105-801, limits assumed); experiment: A450 plate assay on TfR2 (method not described in the text)
T3 sequence (looked up): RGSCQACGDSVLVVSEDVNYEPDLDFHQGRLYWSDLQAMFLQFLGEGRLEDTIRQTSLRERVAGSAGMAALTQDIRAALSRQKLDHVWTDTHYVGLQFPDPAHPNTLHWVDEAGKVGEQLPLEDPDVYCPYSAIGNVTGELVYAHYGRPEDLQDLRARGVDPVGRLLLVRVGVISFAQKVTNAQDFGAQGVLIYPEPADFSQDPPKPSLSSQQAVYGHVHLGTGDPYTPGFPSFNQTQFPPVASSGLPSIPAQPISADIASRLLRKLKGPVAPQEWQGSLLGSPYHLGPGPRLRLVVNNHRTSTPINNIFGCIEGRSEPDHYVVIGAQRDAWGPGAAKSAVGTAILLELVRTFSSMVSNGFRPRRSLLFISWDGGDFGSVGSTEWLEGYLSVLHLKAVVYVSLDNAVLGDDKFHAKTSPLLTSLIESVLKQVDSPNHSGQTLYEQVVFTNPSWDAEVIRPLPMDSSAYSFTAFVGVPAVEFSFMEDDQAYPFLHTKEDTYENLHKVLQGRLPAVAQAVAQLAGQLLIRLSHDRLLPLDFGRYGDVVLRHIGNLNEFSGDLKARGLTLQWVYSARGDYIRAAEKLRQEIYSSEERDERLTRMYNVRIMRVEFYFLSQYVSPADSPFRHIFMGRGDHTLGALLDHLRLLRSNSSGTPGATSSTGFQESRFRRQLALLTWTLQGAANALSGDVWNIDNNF

[8] = biological target: T1, hTfR (human transferrin receptor, …); experiment: ELISA, biotinylated antibody on hTfR captured by plate-coated HFE (HFE+TfR); fit: specific binding with Hill slope
[9] = biological target: T4, recombinant human transferrin receptor protein (Sino Biological 11020-H07H) (human, UniProt P02786 89-760); experiment: ELISA on plate-coated recombinant human TfR1 (CD71); fit: specific binding with Hill slope (row labels blank in the lower block; row taken by the order Bmax, h, Kd)
T4 construct: Bought protein coated on ELISA plates; also called recombinant human TfR1; human TfR1
T4 sequence (P02786 89-760 limits assumed): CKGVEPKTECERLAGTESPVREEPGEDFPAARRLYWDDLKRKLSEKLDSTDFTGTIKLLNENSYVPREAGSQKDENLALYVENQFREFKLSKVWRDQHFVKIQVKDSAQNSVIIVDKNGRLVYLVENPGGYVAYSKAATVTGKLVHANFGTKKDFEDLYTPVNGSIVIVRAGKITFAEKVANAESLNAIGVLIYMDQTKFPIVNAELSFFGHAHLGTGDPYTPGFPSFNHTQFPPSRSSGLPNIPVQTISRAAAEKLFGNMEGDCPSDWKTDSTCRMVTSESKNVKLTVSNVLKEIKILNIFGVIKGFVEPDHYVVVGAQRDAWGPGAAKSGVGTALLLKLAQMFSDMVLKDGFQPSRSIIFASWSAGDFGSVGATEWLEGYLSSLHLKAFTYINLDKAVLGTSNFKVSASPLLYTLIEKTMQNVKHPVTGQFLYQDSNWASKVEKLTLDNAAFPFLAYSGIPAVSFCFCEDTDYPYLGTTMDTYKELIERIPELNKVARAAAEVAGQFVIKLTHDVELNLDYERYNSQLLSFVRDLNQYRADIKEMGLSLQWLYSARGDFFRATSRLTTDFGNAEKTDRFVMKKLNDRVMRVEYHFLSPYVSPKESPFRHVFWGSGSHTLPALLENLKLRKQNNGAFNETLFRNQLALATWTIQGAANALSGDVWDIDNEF
Experimental: Half-well high-binding 96-well plates (Costar #3690) were coated with recombinant human transferrin receptor protein (Sino Biological 11020-H07H) or recombinant cyno transferrin receptor protein (Sino Biological 90253-C07H) at 1 ng/μL in PBS (Gibco 14190) and incubated overnight at 4° C. Plates were washed four times with 100 μL of Tris buffered saline+Tween (20×TBST, Cell Signaling 9997S). 100 μL of Superblock (ThermoFisher PI-37535) was added to each well and incubated for 1 hour at room temperature. The wash step was repeated before the addition of the samples. Samples were added at concentrations up to 10 nM, 50 μL/well. Plates were incubated for another hour at room temp and wash step repeated. Secondary antibody (Peroxidase AffiniPure Goat Anti-Human IgG, Fcγ Fragment Specific, Jackson Immunoresearch, 109-035-098) was diluted 1:5000 in Superblock and 50 μL/well added. Plates were incubated for 1 hour at room temperature and washed one more time. Binding was measured by the addition of 50 μL of 1-Step™ Ultra TMB-ELISA (ThermoFisher, 34028), incubated for 5 minutes, and the reaction was stopped with the addition of 25 μL of Stop Solution 2N sulfuric Acid (R&D Systems DY994). Absorbance was measured at 450 nm, with reference wavelength 570 nm subtracted. Binding constants were determined using GraphPad Prism Specific Binding with Hill Slope.

T1 sequence (P02786 89-760 limits assumed): as above

- Bmax [1]: 3.5 A450
- Kd [1]: 60.4 pM
- h [1]: 1.52
- Kd [2]: 9.99 pM
- koff [2]: 6.94e-06 s⁻¹
- kon [2]: 695000 M⁻¹ s⁻¹
- EC50 (read off the curve) [3]: ~200 pM
- Kd(HFE+TfR)/Kd(TfR) [4]: 8.5
- Kd(Tf+TfR)/Kd(TfR) [5]: 2.4
- Bmax [6]: 96.4 % max binding
- Kd [6]: 10.3 pM
- h [6]: 1.54
- binding result [7]: no binding (tested: 1000 nM)
- Bmax [8]: 1.81 A450
- Kd [8]: 214 pM
- h [8]: 1.45
- Bmax [9]: 96.5 % max binding
- Kd [9]: 6.29 pM
- h [9]: 1.35
B1: 13E4-Variant 15iii (antibody, human IgG1, kappa, L234A L235A)
heavy: QVQLVQSGAEVKKPGASVKVSCKASGYTFTNYWMHWVRQAPGQGLEWMGEINPIQGRSNYAEKFQGRVTLTVDTSSSTAYMELSSLRSEDTATYYCARGTRAMHYWGQGTLVTVSSASTKGPSVFPLAPSSKSTSGGTAALGCLVKDYFPEPVTVSWNSGALTSGVHTFPAVLQSSGLYSLSSVVTVPSSSLGTQTYICNVNHKPSNTKVDKRVEPKSCDKTHTCPPCPAPEAAGGPSVFLFPPKPKDTLMISRTPEVTCVVVDVSHEDPEVKFNWYVDGVEVHNAKTKPREEQYNSTYRVVSVLTVLHQDWLNGKEYKCKVSNKARPAPIEKTISKAKGQPREPQVYTLPPSREEMTKNQVSLTCLVKGFYPSDIAVEWESNGQPENNYKTTPPVLDSDGSFFLYSKLTVDKSRWQQGNVFSCSVMHEALHNHYTQKSLSLSPG
light: DIQMTQSPSSLSASVGDRVTITCRTSENIYSNLAWYQQKPGKAPKLLIYAGTNLADGVPSRFSGSGSGTDYTLTISSLQPEDFANYYCQHFWGTPLTFGGGTKVEIKRTVAAPSVFIFPPSDEQLKSGTASVVCLLNNFYPREAKVQWKVDNALQSGNSQESVTEQDSKDSTYSLSSTLTLSKADYEKHKVYACEVTHQGLSSPVTKSFNRGEC
notes: Humanized hIgG1 with Fc mutations; also called hIgG1 TfR-Var15iii
